Starred links: 1 amine or outer side, 2 acyl side, 3 side chain; linkers in the order of their positions; H or OH if unused. Non-standard residues stand in square brackets, D forms with d. Groups on a side chain read outwards from the residue. No end group written: not given here. *: point of attachment. C18 diacid = O=C(O)CCCCCCCCCCCCCCCCC(=O)*; γGlu = O=C(O)[C@H](CCC(=O)[*:2])N[*:1]; αMeL = CC(C)C[C@](C)(N)C(=O)O; Dap = NC[C@H](N)C(=O)O; Aib = CC(C)(N)C(=O)O
B1: Example 196 (peptide)
chain: YXQGTFTSDFSXXLDKKAQXAFIEYLLEGGPSSGAPPPGGS
modifications: not fully specified; free C-terminus (not amidated); synthetic construct; SITE 2: note = 2-Aminoisobutyric Acid; SITE 12: note = L-ornithine; SITE 13: note = alpha-methyl-leucine; SITE 17: note = Lysine is chemically modified through conjugation of the epsilon-amino group of the Lysine side chain with (2-[2-(2-Amino-ethoxy)-ethoxy]-acetyl)-(gamma-Glu)
B2: Example 875 (peptide)
chain: YXQGTFTSDFSQXLDKKAQXAFIEYLIAGGPSSGAPPPSGS
modifications: synthetic construct; SITE 2: note = 2-Aminoisobutyric Acid; SITE 13: note = alpha-methyl-leucine; SITE 17: note = Lysine is chemically modified through conjugation of the epsilon-amino group of the Lysine side chain with (2-[2-(2-Amino-ethoxy)-ethoxy]-acetyl)-(gamma-Glu)-CO-(CH2) 16-CO2H; SITE 20: n
B3: Example 938 (peptide)
chain: YXQGTFTSDXSQXLDKKAQXAFIEXLLEGGPSSGAPPPSGS
modifications: synthetic construct; SITE 2: note = 2-Aminoisobutyric Acid; SITE 10: note = 3-(4-Pyridyl)-L-alanine; SITE 13: note = alpha-methyl-leucine; SITE 17: note = Lysine is chemically modified through conjugation of the epsilon-amino group of the Lysine side chain with (gamma-Glu)2-CO-(CH2)16-CO2H; SITE 20:
B4: Example 876 (peptide)
chain: YXQGTFTSDFSQXLDKKAQXAFIEYLIAGGPSSGAPPPSGS
modifications: not fully specified; synthetic construct; SITE 2: note = 2-Aminoisobutyric Acid; SITE 13: note = alpha-methyl-leucine; SITE 17: note = Lysine is chemically modified through conjugation of the epsilon-amino group of the Lysine side chain with (gamma-Glu)2-CO-(CH2)16-CO2H; SITE 20: note = 3-(4-Pyridyl)-L-alanine; SITE 41:
B5: Example 941 (peptide)
chain: YXQGTFTSDXSXXLDKKAQXAFIEXLIEGGPSSGAPPPSGS
modifications: synthetic construct; SITE 2: note = 2-Aminoisobutyric Acid; SITE 10: note = 3-(4-Pyridyl)-L-alanine; SITE 12: note = L-ornithine; SITE 13: note = alpha-methyl-leucine; SITE 17: note = Lysine is chemically modified through conjugation of the epsilon-amino group of the Lysine side chain with (gamma-Gl)
B6: Example 841 (peptide)
chain: YXQGTFTSDFSQXLDKKAQXAFIEXLIEGGPSSGAPPPSGS
modifications: synthetic construct; SITE 2: note = 2-Aminoisobutyric Acid; SITE 13: note = alpha-methyl-leucine; SITE 17: note = Lysine is chemically modified through conjugation of the epsilon-amino group of the Lysine side chain with (2-[2-(2-Amino-ethoxy)-ethoxy]-acetyl)-(gamma-Glu)-CO-(CH2) 16-CO2H; SITE 20: n
B7: Example 872 (peptide)
chain: YXQGTFTSDXSQXLDKKAQXAFIEWLIEGGPSSGAPPPSGS
modifications: synthetic construct; SITE 2: note = 2-Aminoisobutyric Acid; SITE 10: note = 3-(4-Pyridyl)-L-alanine; SITE 13: note = alpha-methyl-leucine; SITE 17: note = Lysine is chemically modified through conjugation of the epsilon-amino group of the Lysine side chain with (gamma-Glu)2-CO-(CH2)16-CO2H; SITE 20:
B8: Example 942 (peptide)
chain: YXQGTFTSDXSXXLDKKAQXAFIEXLLEGGPSSGAPPPSGS
modifications: synthetic construct; SITE 2: note = 2-Aminoisobutyric Acid; SITE 10: note = 3-(4-Pyridyl)-L-alanine; SITE 12: note = L-ornithine; SITE 13: note = alpha-methyl-leucine; SITE 17: note = Lysine is chemically modified through conjugation of the epsilon-amino group of the Lysine side chain with (gamma-Gl)
B9: Example 682 (SEQ ID NO: 688) (peptide)
chain: YXQGTXTSDXSIXLDXKAQXXFIEXLIEGGPSSGEPPPSGE
modifications: synthetic construct; SITE 2: note = 2-Aminoisobutyric Acid; SITE 6: note = alpha-methyl-2-fluoro-L-phenylalanine; SITE 10: note = 3-(4-Pyridyl)-L-alanine; SITE 13: note = alpha-methyl-leucine; SITE 16: note = L-ornithine; SITE 17: note = Lysine is chemically modified through conjugation of the epsil
B10: Example 659 (SEQ ID NO: 665) (peptide)
chain: YXQGTXTSDXSILLDKKAQXAFIEYLEEGGPSSGAPPPEGTE
modifications: synthetic construct; SITE 2: note = 2-Aminoisobutyric Acid; SITE 6: note = alpha-methyl-2-fluoro-L-phenylalanine; SITE 10: note = 3-(4-Pyridyl)-L-alanine; SITE 17: note = Lysine is chemically modified through conjugation of the epsilon-amino group of the Lysine side chain with (gamma-Glu)2-CO-(CH2)1
B11: Example 891 (peptide)
chain: YXQGTFTSDXSQXLDKKAQXAFIEYLIEXGPSSGAPPPSGSGE
modifications: not fully specified; possible C-terminal amide; synthetic construct; SITE 2: note = 2-Aminoisobutyric Acid; SITE 10: note = 3-(4-Pyridyl)-L-alanine; SITE 13: note = alpha-methyl-leucine; SITE 17: note = Lysine is chemically modified through conjugation of the epsilon-amino group of the Lysine side chain with (gamma-Glu)2-CO-(CH2)16-CO2H; SITE 20:
B12: Example 946 (peptide)
chain: YXQGTFTSDXSQXLDXKAQXAFIEXLLEGGPSSGAPPPSGSEE
modifications: synthetic construct; SITE 2: note = 2-Aminoisobutyric Acid; SITE 10: note = 3-(4-Pyridyl)-L-alanine; SITE 13: note = alpha-methyl-leucine; SITE 16: note = L-ornithine; SITE 17: note = Lysine is chemically modified through conjugation of the epsilon-amino group of the Lysine side chain with (gamma-Gl)
B13: Example 945 (peptide)
chain: YXQGTFTSDXSQXLDKKAQXAFIEXLLEGGPSSGAPPPSGSEE
modifications: synthetic construct; SITE 2: note = 2-Aminoisobutyric Acid; SITE 10: note = 3-(4-Pyridyl)-L-alanine; SITE 13: note = alpha-methyl-leucine; SITE 17: note = Lysine is chemically modified through conjugation of the epsilon-amino group of the Lysine side chain with (gamma-Glu)2-CO-(CH2)16-CO2H; SITE 20:
B14: Example 1109 (peptide)
chain: YXQGTFTSDXSQXLDXKAQXQFIEXLIEXGPSSGAPPPSGSEE
modifications: Aib, 4Pal, αMeL, Orn, Me4Pal, αMeY; acylated lysine; amide; synthetic construct; SITE 2: note = 2-Aminoisobutyric Acid; SITE 10: note = 3-(4-Pyridyl)-L-alanine; SITE 13: note = alpha-methyl-leucine; SITE 16: note = L-ornithine; SITE 17: note = Lysine is chemically modified through conjugation of the epsilon-amino group of the Lysine side chain with (2-[2-(2-
B15: Example 937 (peptide)
chain: YXQGTFTSDXSQXLDXKAQXAFIEYLIEXGPSSGAPPPSGSEE
modifications: synthetic construct; SITE 2: note = 2-Aminoisobutyric Acid; SITE 10: note = 3-(4-Pyridyl)-L-alanine; SITE 13: note = alpha-methyl-leucine; SITE 16: note = L-ornithine; SITE 17: note = Lysine is chemically modified through conjugation of the epsilon-amino group of the Lysine side chain with (gamma-Gl)
B16: Example 1107 (peptide)
chain: YXQGTFTSDXSQXLDXKAQXAFIEXLIAXGPSSGAPPPSGSEE
modifications: non-natural residues, lipidated Lys, C-terminal amide; synthetic construct; SITE 2: note = 2-Aminoisobutyric Acid; SITE 10: note = 3-(4-Pyridyl)-L-alanine; SITE 13: note = alpha-methyl-leucine; SITE 16: note = L-ornithine; SITE 17: note = Lysine is chemically modified through conjugation of the epsilon-amino group of the Lysine side chain with (gamma-Gl)
B17: Example 1108 (peptide)
chain: YXQGTFTSDXSQXLDXKAQXAFIEXLIEXGPSSGAPPPSGSEE
modifications: non-natural residues; C18 diacid-γGlu-AEEA on Lys; C-terminal amide; synthetic construct; SITE 2: note = 2-Aminoisobutyric Acid; SITE 10: note = 3-(4-Pyridyl)-L-alanine; SITE 13: note = alpha-methyl-leucine; SITE 16: note = L-ornithine; SITE 17: note = Lysine is chemically modified through conjugation of the epsilon-amino group of the Lysine side chain with (2-[2-(2-
B18: Example 944 (peptide)
chain: YXQGTFTSDXSXXLDKKAQXAFIEXLLEGGPSSGAPPPSGSEE
modifications: synthetic construct; SITE 2: note = 2-Aminoisobutyric Acid; SITE 10: note = 3-(4-Pyridyl)-L-alanine; SITE 12: note = L-ornithine; SITE 13: note = alpha-methyl-leucine; SITE 17: note = Lysine is chemically modified through conjugation of the epsilon-amino group of the Lysine side chain with (gamma-Gl)

Tests used:
Experiment in all cases: cell-based or functional assay
hGLP-1R = hGLP-1R (Homo sapiens, UniProt P43220)
[1] = biological target: T1, human GIP receptor (human) (UniProt P48546)
T1 sequence (looked up): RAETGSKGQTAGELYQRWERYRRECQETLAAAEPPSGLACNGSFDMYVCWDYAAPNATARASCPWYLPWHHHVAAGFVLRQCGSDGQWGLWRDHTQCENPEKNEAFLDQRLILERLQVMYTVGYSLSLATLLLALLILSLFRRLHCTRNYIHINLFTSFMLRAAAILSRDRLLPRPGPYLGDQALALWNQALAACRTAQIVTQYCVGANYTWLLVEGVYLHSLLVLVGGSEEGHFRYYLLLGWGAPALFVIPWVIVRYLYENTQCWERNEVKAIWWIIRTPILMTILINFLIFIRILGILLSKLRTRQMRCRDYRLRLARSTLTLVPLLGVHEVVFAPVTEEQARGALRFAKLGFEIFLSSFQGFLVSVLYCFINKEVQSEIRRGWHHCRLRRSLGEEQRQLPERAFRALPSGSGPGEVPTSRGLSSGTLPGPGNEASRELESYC

[2] = biological target: human glucagon receptor (human) (UniProt P47871)
human glucagon receptor (human), sequence (P47871 26-477): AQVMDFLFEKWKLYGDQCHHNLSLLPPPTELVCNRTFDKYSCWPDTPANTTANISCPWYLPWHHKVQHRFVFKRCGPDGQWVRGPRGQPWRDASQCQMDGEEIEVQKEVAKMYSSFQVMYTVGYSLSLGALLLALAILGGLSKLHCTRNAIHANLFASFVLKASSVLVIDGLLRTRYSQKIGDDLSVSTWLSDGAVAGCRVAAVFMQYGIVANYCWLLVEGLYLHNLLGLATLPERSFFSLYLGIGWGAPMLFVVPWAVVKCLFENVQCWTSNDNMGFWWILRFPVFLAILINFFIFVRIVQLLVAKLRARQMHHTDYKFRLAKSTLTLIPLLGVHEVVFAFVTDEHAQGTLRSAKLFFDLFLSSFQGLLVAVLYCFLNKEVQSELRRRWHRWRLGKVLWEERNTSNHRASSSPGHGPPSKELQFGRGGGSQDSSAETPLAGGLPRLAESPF

hGLP-1R, sequence (P43220 24-463): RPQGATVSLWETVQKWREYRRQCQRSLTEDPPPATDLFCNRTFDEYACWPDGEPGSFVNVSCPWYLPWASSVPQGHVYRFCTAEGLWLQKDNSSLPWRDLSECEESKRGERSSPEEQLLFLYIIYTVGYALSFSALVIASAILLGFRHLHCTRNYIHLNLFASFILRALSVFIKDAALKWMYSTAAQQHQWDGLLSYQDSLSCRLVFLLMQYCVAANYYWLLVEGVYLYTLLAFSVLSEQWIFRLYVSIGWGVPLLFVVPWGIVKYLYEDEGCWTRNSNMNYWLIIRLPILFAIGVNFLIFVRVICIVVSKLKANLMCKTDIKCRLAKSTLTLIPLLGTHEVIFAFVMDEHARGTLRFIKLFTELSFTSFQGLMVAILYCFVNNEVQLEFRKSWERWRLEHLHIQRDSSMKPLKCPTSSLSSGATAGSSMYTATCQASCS

Binder	cAMP Rel EC50, nM (1% HSA) (hGLP-1R) [nM]	cAMP Rel EC50, nM (1% HSA) [1] [nM]	cAMP Rel EC50, nM (1% HSA) [2] [nM]	Relative cAMP EC50 (hGLP-1R) [nM]	Relative cAMP EC50 [1] [nM]	Relative cAMP EC50 [2] [nM]
Y[Aib]QGTFTSDFS[Dap][αMeL]LDKK([γGlu-γGlu-C18 diacid])AQ[Aib]AFIEYLLE[Aib]GPSSGAPPPSGS-NH2 [Example 203]	532	19	1160	–	–	–
B1	458	51.4	620	–	–	–
B2	–	–	–	0.771	0.101	3.65
B3	–	–	–	1.84	0.13	13.3
B4	–	–	–	0.456	0.053	3.28
B5	–	–	–	0.764	0.183	11.7
B6	–	–	–	0.336	0.194	9.71
B7	–	–	–	1.01	0.205	4.18
B8	–	–	–	3.52	0.188	6.32
B9	–	–	–	0.212	0.00661	1.91
B10	–	–	–	1.31	0.0673	5.89
B11	–	–	–	3.25	0.155	3.14
B12	–	–	–	2.05	0.353	16.5
B13	–	–	–	3.9	0.246	18
B14	–	–	–	2.3	0.0626	10.8
B15	–	–	–	2.52	0.222	5.52
B16	–	–	–	0.51	0.0447	5.66
B17	–	–	–	0.752	0.0507	4.96
B18	–	–	–	4.86	0.216	6.16
